Measured values as given in PMC9482650, “Quantitative fragmentomics allow affinity mapping of interactomes” (Nature Communications, 2022).

Tests used:
Assay in all cases: holdup assay
Parameters in all cases: key: below the threshold = too weak to quantify, mostly under pKd 3.1 to 4
[1] = target: T1, FRMPD1, Q5SYB0
T1 sequence (Q5SYB0 52-145, limits assumed, looked up): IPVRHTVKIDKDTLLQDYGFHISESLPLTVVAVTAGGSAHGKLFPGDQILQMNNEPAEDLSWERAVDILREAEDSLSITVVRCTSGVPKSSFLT

[2] = target: T2, MPP7, Q5T2T1
T2 sequence (Q5T2T1 134-230, limits assumed, looked up): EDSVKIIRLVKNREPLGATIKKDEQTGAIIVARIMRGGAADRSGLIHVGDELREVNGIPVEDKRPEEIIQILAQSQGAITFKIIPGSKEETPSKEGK

[3] = target: GRID2IP_1, A4D2P6
Chain of GRID2IP_1, A4D2P6 (A4D2P6 1-87): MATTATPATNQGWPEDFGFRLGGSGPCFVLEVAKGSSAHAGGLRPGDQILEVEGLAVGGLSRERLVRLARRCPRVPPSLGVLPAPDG

[4] = target: FRMPD2_1, Q68DX3
Chain of FRMPD2_1, Q68DX3 (Q68DX3 770-861): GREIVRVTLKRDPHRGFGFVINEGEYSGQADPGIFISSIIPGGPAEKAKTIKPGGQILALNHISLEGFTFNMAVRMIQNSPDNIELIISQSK

[5] = target: MAGI1_1, Q96QZ7
Chain of MAGI1_1, Q96QZ7 (Q96QZ7 1-106): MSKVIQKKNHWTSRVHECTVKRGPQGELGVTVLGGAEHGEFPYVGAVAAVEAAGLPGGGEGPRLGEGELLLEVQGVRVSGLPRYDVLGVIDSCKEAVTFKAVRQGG

[6] = target: NHERF2_2, Q15599
Chain of NHERF2_2, Q15599 (Q15599 142-238): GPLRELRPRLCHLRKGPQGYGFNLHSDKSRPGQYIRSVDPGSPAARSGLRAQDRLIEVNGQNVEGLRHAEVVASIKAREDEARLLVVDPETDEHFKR

[7] = target: DLG1_3, Q12959
Chain of DLG1_3, Q12959 (Q12959 457-571): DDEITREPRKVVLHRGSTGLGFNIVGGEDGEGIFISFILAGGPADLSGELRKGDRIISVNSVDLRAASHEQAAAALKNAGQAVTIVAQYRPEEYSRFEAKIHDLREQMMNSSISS

[8] = target: T3, NHERF3_3, Q5T2W1
T3 sequence (Q5T2W1 238-333, limits assumed, looked up): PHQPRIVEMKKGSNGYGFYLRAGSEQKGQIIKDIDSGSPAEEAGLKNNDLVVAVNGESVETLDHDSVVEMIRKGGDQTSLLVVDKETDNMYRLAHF

[9] = target: Inadl_3, Q8NI35
Chain of Inadl_3, Q8NI35 (Q8NI35 359-469): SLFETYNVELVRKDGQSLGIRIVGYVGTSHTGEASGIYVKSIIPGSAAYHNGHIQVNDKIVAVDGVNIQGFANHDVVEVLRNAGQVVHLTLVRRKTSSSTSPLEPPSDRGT

[10] = target: T4, MPDZ_12, O75970
T4 sequence (O75970 1857-1958, limits assumed, looked up): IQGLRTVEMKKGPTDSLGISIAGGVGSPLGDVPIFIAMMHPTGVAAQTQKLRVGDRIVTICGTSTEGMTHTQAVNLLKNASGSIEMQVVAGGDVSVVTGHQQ

[11] = target: MAGI2_5, Q86UL8
Chain of MAGI2_5, Q86UL8 (Q86UL8 915-1017): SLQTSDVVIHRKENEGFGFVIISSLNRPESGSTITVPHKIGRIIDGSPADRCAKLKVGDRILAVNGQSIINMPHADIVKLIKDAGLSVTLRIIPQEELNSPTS

[12] = target: AHNAK1, Q09666
Chain of AHNAK1, Q09666 (Q09666 4-100): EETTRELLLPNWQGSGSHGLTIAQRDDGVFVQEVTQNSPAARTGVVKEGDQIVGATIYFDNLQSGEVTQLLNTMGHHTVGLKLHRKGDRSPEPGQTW

[13] = target: GRIP2_7, Q9C0E4
Chain of GRIP2_7, Q9C0E4 (Q9C0E4 934-1023): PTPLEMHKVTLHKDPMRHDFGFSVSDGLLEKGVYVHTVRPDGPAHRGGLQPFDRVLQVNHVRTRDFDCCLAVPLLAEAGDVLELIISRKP

[14] = target: Inadl_2, Q8NI35
Chain of Inadl_2, Q8NI35 (Q8NI35 238-335): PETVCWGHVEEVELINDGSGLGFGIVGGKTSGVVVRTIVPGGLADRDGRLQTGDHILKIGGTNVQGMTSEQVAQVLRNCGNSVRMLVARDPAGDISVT

[15] = target: MAGI2_3, Q86UL8
Chain of MAGI2_3, Q86UL8 (Q86UL8 600-682): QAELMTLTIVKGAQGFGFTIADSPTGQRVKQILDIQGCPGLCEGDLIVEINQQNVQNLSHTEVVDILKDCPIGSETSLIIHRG

[16] = target: TJP2_1, Q9UDY2
Chain of TJP2_1, Q9UDY2 (Q9UDY2 24-128): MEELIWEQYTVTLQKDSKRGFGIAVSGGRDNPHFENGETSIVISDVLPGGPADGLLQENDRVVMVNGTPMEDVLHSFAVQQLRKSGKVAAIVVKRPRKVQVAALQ

[17] = target: T5, TIAM2, Q8IVF5
T5 sequence (Q8IVF5 885-986, limits assumed, looked up): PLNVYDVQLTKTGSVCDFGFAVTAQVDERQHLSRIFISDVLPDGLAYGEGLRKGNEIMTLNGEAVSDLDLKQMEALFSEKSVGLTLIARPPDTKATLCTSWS

[18] = target: T6, MPDZ_5, O75970
T6 sequence (O75970 695-796, limits assumed, looked up): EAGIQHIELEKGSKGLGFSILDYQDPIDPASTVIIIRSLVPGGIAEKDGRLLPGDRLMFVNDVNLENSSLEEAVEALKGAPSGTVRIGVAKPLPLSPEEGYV

[19] = target: T7, GRIP1_2, Q9Y3R0
T7 sequence (Q9Y3R0 145-248, limits assumed, looked up): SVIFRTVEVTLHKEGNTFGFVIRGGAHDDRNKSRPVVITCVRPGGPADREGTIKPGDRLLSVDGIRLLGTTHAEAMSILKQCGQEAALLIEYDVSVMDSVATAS

[20] = target: T8, TJP3_3, O95049
T8 sequence (O95049 375-456, limits assumed, looked up): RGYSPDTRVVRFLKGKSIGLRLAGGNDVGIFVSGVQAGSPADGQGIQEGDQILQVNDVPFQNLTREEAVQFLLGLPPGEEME

[21] = target: NHERF4_2, Q86UT5
Chain of NHERF4_2, Q86UT5 (Q86UT5 220-308): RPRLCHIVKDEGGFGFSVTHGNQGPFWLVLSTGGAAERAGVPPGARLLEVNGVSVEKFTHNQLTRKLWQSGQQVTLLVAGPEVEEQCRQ

[22] = target: IL16_4, Q14005
Chain of IL16_4, Q14005 (Q14005 1229-1329): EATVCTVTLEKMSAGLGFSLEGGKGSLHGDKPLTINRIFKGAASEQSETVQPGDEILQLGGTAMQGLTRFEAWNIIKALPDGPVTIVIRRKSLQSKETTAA

[23] = target: MAGI2_4, Q86UL8
Chain of MAGI2_4, Q86UL8 (Q86UL8 772-865): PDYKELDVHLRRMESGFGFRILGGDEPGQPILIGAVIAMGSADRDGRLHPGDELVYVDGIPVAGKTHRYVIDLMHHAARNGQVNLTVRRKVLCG

[24] = target: T9, SNTB1, Q13884
T9 sequence (Q13884 107-205, limits assumed, looked up): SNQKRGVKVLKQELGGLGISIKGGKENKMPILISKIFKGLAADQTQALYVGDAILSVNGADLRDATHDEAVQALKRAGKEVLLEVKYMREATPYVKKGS

[25] = target: Inadl_1, Q8NI35
Chain of Inadl_1, Q8NI35 (Q8NI35 113-229): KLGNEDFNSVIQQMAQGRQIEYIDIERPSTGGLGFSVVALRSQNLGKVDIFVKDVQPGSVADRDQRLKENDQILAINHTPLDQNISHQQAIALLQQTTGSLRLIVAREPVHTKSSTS

[26] = target: T10, HTRA4, P83105
T10 sequence (P83105 378-476, limits assumed, looked up): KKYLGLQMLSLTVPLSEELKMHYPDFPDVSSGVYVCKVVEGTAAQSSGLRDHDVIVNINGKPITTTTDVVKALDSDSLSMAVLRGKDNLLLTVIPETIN

[27] = target: IL16_1, Q14005
Chain of IL16_1, Q14005 (Q14005 210-306): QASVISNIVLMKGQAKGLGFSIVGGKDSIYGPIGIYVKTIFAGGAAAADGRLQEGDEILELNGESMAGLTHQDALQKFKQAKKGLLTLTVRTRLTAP

[28] = target: PDZRN4_1, Q6ZMN7
Chain of PDZRN4_1, Q6ZMN7 (Q6ZMN7 213-318): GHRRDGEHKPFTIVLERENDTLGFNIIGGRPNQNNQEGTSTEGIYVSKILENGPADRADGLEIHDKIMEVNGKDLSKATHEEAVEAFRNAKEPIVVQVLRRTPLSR

[29] = plain residues with an end cap or a label only (N-terminal biotin on a linker: ahx)
[30] = plain residues with an end cap or a label only (N-terminal biotin on a linker: ttds)
[31] = plain residues with an end cap or a label only (N-terminal biotin on a linker: ado-ado)

HSATSVHTSV [MTMR1, Q13613]
pKd [1, 29]: below the threshold | pKd [2, 29]: below the threshold | pKd [3, 29]: below the threshold | pKd [4, 29]: below the threshold | pKd [5, 29]: below the threshold | pKd [6, 29]: below the threshold | pKd [7, 29]: 3.56 | pKd [8, 29]: below the threshold | pKd [9, 29]: 3.7 | pKd [10, 29]: below the threshold | pKd [11, 29]: 4.02 | pKd [12, 29]: below the threshold | pKd [13, 29]: below the threshold | pKd [14, 29]: below the threshold | pKd [15, 29]: below the threshold | pKd [16, 29]: below the threshold | pKd [17, 29]: below the threshold | pKd [18, 29]: below the threshold | pKd [19, 29]: below the threshold | pKd [20, 29]: below the threshold | pKd [21, 29]: below the threshold | pKd [22, 29]: below the threshold | pKd [23, 29]: below the threshold | pKd [24, 29]: 3.78 | pKd [25, 29]: below the threshold | pKd [26, 29]: below the threshold | pKd [27, 29]: below the threshold | pKd [28, 29]: below the threshold

GARVSKETPL [MAPK12, P53778]
pKd [1, 30]: below the threshold | pKd [2, 30]: below the threshold | pKd [3, 30]: below the threshold | pKd [4, 30]: below the threshold | pKd [5, 30]: below the threshold | pKd [6, 30]: 4.09 | pKd [7, 30]: 3.95 | pKd [8, 30]: below the threshold | pKd [9, 30]: below the threshold | pKd [10, 30]: below the threshold | pKd [11, 30]: below the threshold | pKd [12, 30]: below the threshold | pKd [13, 30]: below the threshold | pKd [14, 30]: below the threshold | pKd [15, 30]: below the threshold | pKd [16, 30]: below the threshold | pKd [17, 30]: below the threshold | pKd [18, 30]: below the threshold | pKd [19, 30]: below the threshold | pKd [20, 30]: below the threshold | pKd [21, 30]: below the threshold | pKd [22, 30]: 3.58 | pKd [23, 30]: below the threshold | pKd [24, 30]: 4.71 | pKd [25, 30]: below the threshold | pKd [26, 30]: below the threshold | pKd [27, 30]: below the threshold | pKd [28, 30]: 4.71

SQDPKKPSRV [CBY2, Q8NA61]
pKd [1, 31]: below the threshold | pKd [2, 31]: below the threshold | pKd [3, 31]: below the threshold | pKd [4, 31]: below the threshold | pKd [5, 31]: 3.49 | pKd [6, 31]: below the threshold | pKd [7, 31]: below the threshold | pKd [8, 31]: below the threshold | pKd [9, 31]: below the threshold | pKd [10, 31]: below the threshold | pKd [11, 31]: below the threshold | pKd [12, 31]: below the threshold | pKd [13, 31]: below the threshold | pKd [14, 31]: below the threshold | pKd [15, 31]: below the threshold | pKd [16, 31]: below the threshold | pKd [17, 31]: below the threshold | pKd [18, 31]: below the threshold | pKd [19, 31]: below the threshold | pKd [20, 31]: below the threshold | pKd [21, 31]: below the threshold | pKd [22, 31]: below the threshold | pKd [23, 31]: below the threshold | pKd [24, 31]: below the threshold | pKd [25, 31]: below the threshold | pKd [26, 31]: 3.9 | pKd [27, 31]: below the threshold | pKd [28, 31]: below the threshold

DLDEEEDTHL [PODXL, O00592]
pKd [1, 30]: below the threshold | pKd [2, 30]: below the threshold | pKd [3, 30]: below the threshold | pKd [4, 30]: below the threshold | pKd [5, 30]: below the threshold | pKd [6, 30]: 5.39 | pKd [7, 30]: below the threshold | pKd [8, 30]: below the threshold | pKd [9, 30]: below the threshold | pKd [10, 30]: below the threshold | pKd [11, 30]: below the threshold | pKd [12, 30]: below the threshold | pKd [13, 30]: below the threshold | pKd [14, 30]: below the threshold | pKd [15, 30]: below the threshold | pKd [16, 30]: below the threshold | pKd [17, 30]: below the threshold | pKd [18, 30]: below the threshold | pKd [19, 30]: 3.63 | pKd [20, 30]: 3.5 | pKd [21, 30]: below the threshold | pKd [22, 30]: below the threshold | pKd [23, 30]: below the threshold | pKd [24, 30]: below the threshold | pKd [25, 30]: below the threshold | pKd [26, 30]: below the threshold | pKd [27, 30]: below the threshold | pKd [28, 30]: below the threshold

IGHEDLETAV [DGKI, O75912]
pKd [1, 31]: below the threshold | pKd [2, 31]: below the threshold | pKd [3, 31]: below the threshold | pKd [4, 31]: below the threshold | pKd [5, 31]: below the threshold | pKd [6, 31]: 4.12 | pKd [7, 31]: 3.68 | pKd [8, 31]: below the threshold | pKd [9, 31]: 3.53 | pKd [10, 31]: below the threshold | pKd [11, 31]: 4.82 | pKd [12, 31]: below the threshold | pKd [13, 31]: below the threshold | pKd [14, 31]: below the threshold | pKd [15, 31]: 4.61 | pKd [16, 31]: below the threshold | pKd [17, 31]: below the threshold | pKd [18, 31]: below the threshold | pKd [19, 31]: below the threshold | pKd [20, 31]: below the threshold | pKd [21, 31]: below the threshold | pKd [22, 31]: 3.52 | pKd [23, 31]: below the threshold | pKd [24, 31]: 5.08 | pKd [25, 31]: below the threshold | pKd [26, 31]: below the threshold | pKd [27, 31]: 4.26 | pKd [28, 31]: 4.7
